Measurements published in US20100240040A1, “METHOD FOR SCREENING FOR SELECTIVE MODULATOR OF THE NF-KB PATHWAY ACTIVATION” (INSTITUT PASTEUR, priority 2007, published 2010).

Molecular target: T1, Biot-CC2-LZ (Mus musculus, UniProt O88522)
T1 construct: made in house; host or cells: chemical synthesis
Test: HTRF assay, complex with Biot-CC2-LZ (negative and positive controls)
Type: binding
Settings: 50 nM His-tagged protein with 50 nM Biot-CC2-LZ, Strept-Eu 2 nM, AntiHis-XL 7 nM
Text: The Homogeneous Time Resolved Fluorescence (HTRF®) assay reagents anti-(His)6 monoclonal antibody labeled with XL665 (MABHis6-XL) and streptavidin-Europium cryptate (streptavidin-EuK) were purchased from CIS-Bio. The His-CC2-LZ peptide (SEQ ID NO: 30 and 31) was purified as described in Agou et al., 2004a and the biotin tagged CC2-LZ peptide (SEQ ID NO: 28 and 29) was chemically synthezised as described in Wyler et al., 2007.
In HTRF experiments, the pure His-CC2-LZ protein was labeled by anti-His-XL665 mAb and biot-CC2-LZ was labeled by streptavidin-EuK. Dimerization of His-CC2-LZ and Biot-CC2-LZ leads the donor (Steptavidin-EuK) and the acceptor (anti-His-XL665) into close proximity. Upon excitation of Europium cryptate at 320 nm, FRET occurs between these two fluorophores, and XL665 re-emits a specific long-lived fluorescence at 665 nm.
All experiments were carried out in a black microplate Greiner (200 μl) at 25° C. The excitation wavelength was 320 nm and the fluorescence emissions were measured at 620 nm and at 665 nm to normalize the specific signal. Fluorescence emission was recorded at both wavelengths after an 50 μs delay, which reduces background noise introduced by the media and the free acceptor molecules. The FRET signal is calculated using the following equation:
ΔF=[(R−Rneg)/Rneg]*100 (1) […]

FRET (ΔF %): ≦0%
B1: His-CC2-LZ: six his-tagged CC2-LZ peptide, recombinant, SEQ ID NO: 30 (humanised 31) (protein)
chain: MGSHHHHHHSSGLVPRGSHMASLEDLRQQLQQAEEALVAKQELIDKLKEEAEQHKIVMETVPVLKAQADIYKADFQAERHAREKLVEKKEYLQEQLEQLQREFNKL
